Columns and labels:
Assay in all cases: SEC
[1] = biological target: CdaA_(88-273) D172A (Leptospira interrogans str. Fiocruz L1-130)
[2] = biological target: CdaA_(88-273) R203A (Leptospira interrogans str. Fiocruz L1-130)
[3] = biological target: CdaA_(88-273) S222A (Leptospira interrogans str. Fiocruz L1-130)

For “CdaA_(88-273) D172A (domain or fragment)”, which stoichiometry N [1] is on record?
Its stoichiometry N is 2.

How did the stoichiometry N [2] turn out when “CdaA_(88-273) R203A (domain or fragment)” was run?
Its stoichiometry N is 2.

With “CdaA_(88-273) S222A (domain or fragment)” as the substance, how does the stoichiometry N [3] read?
Its stoichiometry N is 2.
